Publication PMC4418518 (2015)
Where two headings read alike, the source gives them in different places.

How the values were obtained:
Test in all cases: co-sedimentation
actin = actin (Saccharomyces cerevisiae, UniProt P60010)
F-actin [1] = biological target: T1, F-actin (Saccharomyces cerevisiae, UniProt P60010)
F-actin [2] = biological target: T1, F-actin; remark: listed apart in the source

Kd (actin): 370 nM
Kd (F-actin [1]): 1310 nM
Kd (F-actin [2]): 1480 nM
B1: Vinculin tail (VT) 881-1066 (protein)
chain: KDEEFPEQKAGEAINQPMMMAARQLHDEARKWSSKPVTVINEAAEAGVDIDEEDDADVEFSLPSDIEDDYEPELLLMPTNQPVNQPILAAAQSLHREATKWSSKGNDIIAAAKRMALLMAEMSRLVRGGSGNKRALIQCAKDIAKASDEVTRLAKEVAKQCTDKRIRTNLLQVCERIPTISTQLKI
